Data on two substances can be found in patent US20160009772A1, “CELL PENETRATING PEPTIDES WHICH BIND IRF5” (priority 2012, published 2016).

The assay concerns the target Wild type IRF5 (222-467) (human) (UniProt Q13568). The experiment in a line: TR-FRET. A general note: Time-resolved FRET reads energy transfer from a long-lived donor to a nearby acceptor.

pKd: −log10 of the molar value.

Sequence of Wild type IRF5 (222-467) (Q13568 232-477): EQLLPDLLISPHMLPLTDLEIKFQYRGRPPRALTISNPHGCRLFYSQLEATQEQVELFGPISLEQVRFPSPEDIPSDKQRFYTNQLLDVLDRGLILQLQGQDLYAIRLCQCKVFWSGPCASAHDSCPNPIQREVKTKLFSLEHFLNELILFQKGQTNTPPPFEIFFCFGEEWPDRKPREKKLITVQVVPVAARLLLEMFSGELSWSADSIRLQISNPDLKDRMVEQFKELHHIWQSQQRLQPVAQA

As for “Wild type IRF5 (222-467) (from UniProt Q13568 232-477)”, the negative-log Kd (pKd) is 5.38.
Turning to “IRF5(222-467, S430D), S430D phosphomimetic construct of IRF5 (222-467) (from UniProt Q13568 222-467)”, the negative logarithm of the Kd (pKd) was 5.80.

By pKd is commonly meant −log10 of the Kd, conventionally taken in molar units. A high value points to a low Kd.
